These results are taken from US20140296307, “POTENT ANALOGUES OF THE C-MYC INHIBITOR 10074-G5 WITH IMPROVED CELL PERMEABILITY” (University of Maryland, Baltimore, published 2014).

Data set [1] concerns the target Max(L) homodimer (UniProt P61244 P61244:2-160). Kind of data set: EMSA; 60 nM Max(L), 20 nM DNA; same buffer; 3jc48-3 compound IC50 60.6 uM. The conditions noted are these: tags: His6; chain copies: 2 (stated homodimer); label: 5'-hexachlorofluorescein. As to the method: (§1) EMSAs. These were performed essentially as described previously (23). Briefly, Ni⁺-agarose-purified His₆-tagged c-Myc bHLH-ZIP domain (residues 353-437) was used for all binding assays as was the His₆-tagged 151 residue isoform of Max, otherwise referred to as Max(S) (residues 2-151) (21). For each binding reaction, the proteins were allowed to heterodimerize at a concentration of 30 nM each in the presence of 20 nM of a 5′-HEX-tagged double-stranded 22-base pair oligonucleotide 5′-hexachlorofluoresceine-[…]-3′ (SEQ ID NO: 1) containing a consensus c-Myc binding site (CACGTG) and the indicated concentration of small molecule inhibitor. Control reactions contained the same oligonucleotide in the presence of 60 nM of the 160 residue isoform of Max referred to as Max(L) (21). All binding reactions were prepared in a buffer consisting of PBS (pH 7.3), 1 mmol/L EDTA, 0.1% NP40, 5% glycerol, 1 mmol/L DTT, and 0.4 mg/mL bovine serum albumin. Electrophoresis was performed on 8% polyacrylamide/bisacrylamide (80:1) gels in […] (23). Each reaction was run on at least three separate occasions.

In data set [2] the target is c-Myc bHLH-ZIP/Max(S) heterodimer (UniProt P01106-1;P61244-2 P01106-1:353-437,P61244-2:2-151). Kind of data set: EMSA; 30 nM each protein, 20 nM DNA; PBS pH 7.3, 1 mM EDTA, 0.1% NP40, 5% glycerol, 1 mM DTT, 0.4 mg/mL BSA; binding disrupted by 3jc48-3 (compound IC50 34.8 uM). The settings on record: tags: His6 (Myc His6-TEV tag from pET151, removed by TEV in one protocol), label: 5'-hexachlorofluorescein. As to the method: as §1
On the technique in general: A gel shift assay detects complexes by their altered migration in electrophoresis.

Sequence of Max(L) homodimer (P61244 2-160, one chain of several): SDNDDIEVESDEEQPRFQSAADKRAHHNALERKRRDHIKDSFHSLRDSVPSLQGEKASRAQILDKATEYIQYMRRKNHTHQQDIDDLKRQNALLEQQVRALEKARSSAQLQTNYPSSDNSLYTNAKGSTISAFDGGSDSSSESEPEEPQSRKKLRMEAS
Sequence of c-Myc bHLH-ZIP/Max(S) heterodimer (P01106 368-452, chain 1 of 2): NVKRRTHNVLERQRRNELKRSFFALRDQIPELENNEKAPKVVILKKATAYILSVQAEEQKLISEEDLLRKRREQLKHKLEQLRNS
Sequence of c-Myc bHLH-ZIP/Max(S) heterodimer (P61244 other isoform, or with tags, fused parts or gaps, chain 2 of 2): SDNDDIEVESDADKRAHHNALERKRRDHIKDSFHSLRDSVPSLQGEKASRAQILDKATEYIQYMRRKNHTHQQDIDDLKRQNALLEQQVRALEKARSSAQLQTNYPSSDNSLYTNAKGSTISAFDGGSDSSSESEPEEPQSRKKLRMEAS

B1: E-box 22-bp HEX oligonucleotide (dsDNA)
DNA 1: CACCCGGTCACGTGGCCTACAC
DNA 2: GTGTAGGCCACGTGACCGGGTG
B1: the binding result in data set [1] and in data set [2] was “binds” each time.
